Data from the supplement of paper PMC10201428.
± gives the standard deviation of the averaged measurements.

What was measured:
[1] = tested on: VchCAST RNA-guided transposition machinery (E. coli BL21(DE3) host, lacZ target); assay: relative integration efficiency (T-LR orientation) vs wild-type transposon end (log2 (normalized fold change)); transposon end mutated: right end (5 bp flank + 75 bp right end); higher = more efficient transposition
Outline: (§1)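 Relative integration efficiency is a fold change of output over input barcode abundance, normalised to reference barcodes and log-transformed. Input plasmids and genomic integration junctions were PCR-amplified and Illumina-sequenced from E. coli BL21(DE3) co-transformed with a T7-driven effector plasmid and pUC57 donor pools of 1549 left-end or 1849 right-end transposon variants. Plating was done with 0.1 mM IPTG at 37°C for 18 h, with two biological output replicates and four reference barcodes.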

[2] = tested on: VchCAST RNA-guided transposition machinery (E. coli BL21(DE3) host, lacZ target); assay: relative integration efficiency (T-RL orientation) vs wild-type transposon end (log2 (normalized fold change)); transposon end mutated: right end (5 bp flank + 75 bp right end); higher = more efficient transposition
Outline: as §1

| Sequence | relative integration efficiency (log2) [1] | relative integration efficiency (log2) [2] |
| --- | --- | --- |
| ACATTTGTTGATACAACCATAAAAGTCGAATTACACCCATAAATTGATAATTATCACACCCATAAATTGATATTGCCTCTGATCATAGTCAGACCAACATTGCTACGACCCGTATTCGCACCGACAC | -3.24 ± 0.7 | -2.69 ± 0.26 |
| ACATTTGTTGATACAACCATAAAAGTCGCCGGCACAAACGCCCGGTCGCCGGCGACACAAACGCCCGGTCGCGGTAAGAGGATCATAGTCAGACCAACATTGCTACGACCCGTATTCGCACCGACAC | -2.61 ± 0.042 | -5.34 ± 0.34 |
| ACATTTGTTGATACAACCATAAAATCATAATTACACCCATAAATTCATAATTATCACACCCATAAATTCATATTGCCTCTGATCATAGTCAGACCAACATTGCTACGACCCGTATTCGCACCGACAC | -1.52 ± 0.48 | -4.92 ± 0.57 |
| ACATTTGTTGATACAACCATAAAATCATAATTACACCCATAAATTGATAATTATCACACCCCATTTAACTATAACGCTCTGATCATAGTCAGACCAACATTGCTACGACCCGTATTCGCACCGACAC | 1.21 ± 0.17 | -2.85 ± 0.24 |
| ACATTTGTTGATACAACCATAAAATCATAATTACACCCATAAATTGATAATTATCCCACCCAATTTAACTATAACGCTCTGATCATAGTCAGACCAACATTGCTACGACCCGTATTCGCACCGACAC | 1.64 ± 0.041 | -2.19 ± 0.14 |
| ACATTTGTTGATACAACCATAAAATCATAATTACACCCATAAATTGATAATTATCCCACCCCATTTAACTATAACGCTCTGATCATAGTCAGACCAACATTGCTACGACCCGTATTCGCACCGACAC | 1.23 ± 0.046 | -2.73 ± 0.22 |
| ACATTTGTTGATACAACCATAAAATCATAATTACACCCATCAATTGATAATTATCACACCCAATTTAACTATAACGCTCTGATCATAGTCAGACCAACATTGCTACGACCCGTATTCGCACCGACAC | -0.27 ± 0.36 | -4.01 ± 0.22 |
| ACATTTGTTGATACAACCATAAAATCATAATTACACCCATCAATTGATAATTATCACACCCCATTTAACTATAACGCTCTGATCATAGTCAGACCAACATTGCTACGACCCGTATTCGCACCGACAC | -0.773 ± 0.047 | -4.31 ± 0.11 |
| ACATTTGTTGATACAACCATAAAATCATAATTACACCCATCAATTGATAATTATCCCACCCAATTTAACTATAACGCTCTGATCATAGTCAGACCAACATTGCTACGACCCGTATTCGCACCGACAC | -0.195 ± 0.066 | -3.92 ± 0.52 |
| ACATTTGTTGATACAACCATAAAATCATAATTACACCCATCAATTGATAATTATCCCACCCCATTTAACTATAACGCTCTGATCATAGTCAGACCAACATTGCTACGACCCGTATTCGCACCGACAC | -0.633 ± 0.39 | -4.292 ± 0.026 |
| ACATTTGTTGATACAACCATAAAATCATAATTACCCCCATAAATTGATAATTATCACACCCAATTTAACTATAACGCTCTGATCATAGTCAGACCAACATTGCTACGACCCGTATTCGCACCGACAC | 0.699 ± 0.11 | -3.09 ± 0.33 |
| ACATTTGTTGATACAACCATAAAATCATAATTACCCCCATAAATTGATAATTATCACACCCCATTTAACTATAACGCTCTGATCATAGTCAGACCAACATTGCTACGACCCGTATTCGCACCGACAC | 0.532 ± 0.1 | -3.3 ± 0.19 |
| ACATTTGTTGATACAACCATAAAATCATAATTACCCCCATAAATTGATAATTATCCCACCCAATTTAACTATAACGCTCTGATCATAGTCAGACCAACATTGCTACGACCCGTATTCGCACCGACAC | 3.39 ± 0.37 | -0.611 ± 0.71 |
| ACATTTGTTGATACAACCATAAAATCATAATTACCCCCATAAATTGATAATTATCCCACCCCATTTAACTATAACGCTCTGATCATAGTCAGACCAACATTGCTACGACCCGTATTCGCACCGACAC | 0.676 ± 0.046 | -3.28 ± 0.32 |
| ACATTTGTTGATACAACCATAAAATCATAATTACCCCCATCAATTGATAATTATCACACCCAATTTAACTATAACGCTCTGATCATAGTCAGACCAACATTGCTACGACCCGTATTCGCACCGACAC | -2.04 ± 0.46 | -5.12 ± 0.12 |
| ACATTTGTTGATACAACCATAAAATCATAATTACCCCCATCAATTGATAATTATCACACCCCATTTAACTATAACGCTCTGATCATAGTCAGACCAACATTGCTACGACCCGTATTCGCACCGACAC | -1.5 ± 0.28 | -5.34 ± 0.18 |
| ACATTTGTTGATACAACCATAAAATCATAATTACCCCCATCAATTGATAATTATCCCACCCAATTTAACTATAACGCTCTGATCATAGTCAGACCAACATTGCTACGACCCGTATTCGCACCGACAC | -1.33 ± 0.49 | -5.51 ± 0.13 |
| ACATTTGTTGATACAACCATAAAATCATAATTACCCCCATCAATTGATAATTATCCCACCCCATTTAACTATAACGCTCTGATCATAGTCAGACCAACATTGCTACGACCCGTATTCGCACCGACAC | -2.4 ± 0.19 | -5.42 ± 0.086 |

| Sequence | relative integration efficiency (log2) [1] | relative integration efficiency (log2) [2] |
| --- | --- | --- |
| ACATTTGTTGATACAACCATAAAATCATAATTCACCCATAAATTGATAATTATCACACCCACATTTAACTATAACGCTCTGATCATAGTCAGACCAACATTGCTACGACCCGTATTCGCACCGACAC | -0.0705 ± 0.067 | -4.53 ± 0.24 |
| ACATTTGTTGATACAACCATAAAATCATAATTCACCCCTAAATTGATAATTATCACACCCACATTTAACTATAACGCTCTGATCATAGTCAGACCAACATTGCTACGACCCGTATTCGCACCGACAC | -1.89 ± 0.27 | -6.26 ± 0.19 |
| ACATTTGTTGATACAACCATAAAATCATCATTACACCCATAAATTGATAATTATCACACCCAATTTAACTATAACGCTCTGATCATAGTCAGACCAACATTGCTACGACCCGTATTCGCACCGACAC | 0.617 ± 0.13 | -3.16 ± 0.25 |
| ACATTTGTTGATACAACCATAAAATCATCATTACACCCATAAATTGATAATTATCACACCCCATTTAACTATAACGCTCTGATCATAGTCAGACCAACATTGCTACGACCCGTATTCGCACCGACAC | 0.57 ± 0.096 | -3.39 ± 0.35 |
| ACATTTGTTGATACAACCATAAAATCATCATTACACCCATAAATTGATAATTATCCCACCCAATTTAACTATAACGCTCTGATCATAGTCAGACCAACATTGCTACGACCCGTATTCGCACCGACAC | 0.728 ± 0.058 | -3.07 ± 0.5 |
| ACATTTGTTGATACAACCATAAAATCATCATTACACCCATAAATTGATAATTATCCCACCCCATTTAACTATAACGCTCTGATCATAGTCAGACCAACATTGCTACGACCCGTATTCGCACCGACAC | 0.992 ± 0.31 | -2.81 ± 0.49 |
| ACATTTGTTGATACAACCATAAAATCATCATTACACCCATCAATTGATAATTATCACACCCAATTTAACTATAACGCTCTGATCATAGTCAGACCAACATTGCTACGACCCGTATTCGCACCGACAC | -0.508 ± 0.42 | -4.74 ± 0.38 |
| ACATTTGTTGATACAACCATAAAATCATCATTACACCCATCAATTGATAATTATCACACCCCATTTAACTATAACGCTCTGATCATAGTCAGACCAACATTGCTACGACCCGTATTCGCACCGACAC | -1.24 ± 0.14 | -4.88 ± 0.26 |
| ACATTTGTTGATACAACCATAAAATCATCATTACACCCATCAATTGATAATTATCCCACCCAATTTAACTATAACGCTCTGATCATAGTCAGACCAACATTGCTACGACCCGTATTCGCACCGACAC | -1.17 ± 0.061 | -4.67 ± 0.2 |
| ACATTTGTTGATACAACCATAAAATCATCATTACACCCATCAATTGATAATTATCCCACCCCATTTAACTATAACGCTCTGATCATAGTCAGACCAACATTGCTACGACCCGTATTCGCACCGACAC | -1.08 ± 0.22 | -4.36 ± 0.26 |
| ACATTTGTTGATACAACCATAAAATCATCATTACCCCCATAAATTGATAATTATCACACCCAATTTAACTATAACGCTCTGATCATAGTCAGACCAACATTGCTACGACCCGTATTCGCACCGACAC | -0.419 ± 0.52 | -4.04 ± 0.25 |
| ACATTTGTTGATACAACCATAAAATCATCATTACCCCCATAAATTGATAATTATCACACCCCATTTAACTATAACGCTCTGATCATAGTCAGACCAACATTGCTACGACCCGTATTCGCACCGACAC | -0.211 ± 0.014 | -3.71 ± 0.07 |
| ACATTTGTTGATACAACCATAAAATCATCATTACCCCCATAAATTGATAATTATCCCACCCAATTTAACTATAACGCTCTGATCATAGTCAGACCAACATTGCTACGACCCGTATTCGCACCGACAC | 0.215 ± 0.23 | -3.815 ± 0.027 |
| ACATTTGTTGATACAACCATAAAATCATCATTACCCCCATAAATTGATAATTATCCCACCCCATTTAACTATAACGCTCTGATCATAGTCAGACCAACATTGCTACGACCCGTATTCGCACCGACAC | -0.0125 ± 0.058 | -3.69 ± 0.077 |
| ACATTTGTTGATACAACCATAAAATCATCATTACCCCCATCAATTGATAATTATCACACCCAATTTAACTATAACGCTCTGATCATAGTCAGACCAACATTGCTACGACCCGTATTCGCACCGACAC | -1.24 ± 0.5 | -5.41 ± 0.15 |
| ACATTTGTTGATACAACCATAAAATCATCATTACCCCCATCAATTGATAATTATCACACCCCATTTAACTATAACGCTCTGATCATAGTCAGACCAACATTGCTACGACCCGTATTCGCACCGACAC | -1.95 ± 0.53 | -5.76 ± 0.07 |
| ACATTTGTTGATACAACCATAAAATCATCATTACCCCCATCAATTGATAATTATCCCACCCAATTTAACTATAACGCTCTGATCATAGTCAGACCAACATTGCTACGACCCGTATTCGCACCGACAC | -1.26 ± 0.14 | -5.47 ± 0.095 |
